The values below are quoted from earlier work in PMC6232131.

The term Kd denotes the free concentration of one partner at which half of the binding sites on the other are occupied at equilibrium, for simple one-to-one binding.

The target of this data set is fibrinogen beta (Homo sapiens) (UniProt P02675).
Sequence of UniProt P02675 (P02675 45-491): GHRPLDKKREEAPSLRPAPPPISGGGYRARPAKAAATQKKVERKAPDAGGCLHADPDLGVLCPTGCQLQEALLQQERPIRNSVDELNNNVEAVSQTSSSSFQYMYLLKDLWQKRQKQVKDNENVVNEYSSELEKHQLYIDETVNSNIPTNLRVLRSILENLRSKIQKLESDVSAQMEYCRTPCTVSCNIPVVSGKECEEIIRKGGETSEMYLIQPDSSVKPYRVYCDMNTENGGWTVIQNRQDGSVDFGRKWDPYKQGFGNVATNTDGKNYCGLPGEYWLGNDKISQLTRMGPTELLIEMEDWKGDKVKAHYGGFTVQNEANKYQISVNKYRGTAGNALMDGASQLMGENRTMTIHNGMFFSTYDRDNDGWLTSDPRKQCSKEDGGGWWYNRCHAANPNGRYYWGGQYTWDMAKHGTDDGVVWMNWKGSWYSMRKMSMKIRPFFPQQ

On to SdrG N2N3 (from UniProt Q9KI13), for which the Kd was 400 nM.
